Measured values as given in IntAct's records for PubMed 19207211.

B1: Oxysterol-binding protein-related protein 3A (Arabidopsis thaliana (Mouse-ear cress)), Q9LZM1 (parent)
chain: MASNDPKNGGGFFASLASSITNFGSAMSKSVNGLMGYEGLEVINPEGSTDDAEEEAGRGRWKQEERDGYWKMMQKYIGSDVTSMVTLPVIIFEPMTMLQKMAELMEYSYLLDMADKTEDPYMRMVYASSWAISVYYAYQRTWKPFNPILGETYEMTNHNGINFIAEQVCHHPPMSAGHAENEHFAYDCTSKLKTKFLGNSIDVYPVGRTRVTLKRDGVVLDLVPPLTKVHNLIFGRTWVDSPGEMVMTNLTTGDKVVLYFQPCGWFGSGRYEVDGYVYNSAEEPKMLMTGKWNESLSYQPCDAEGEPLPGTELKEVWKVAEAPKNDKYQYTHFAHKINSFDTAPKKLLSSDSRLRPDRYALEMGDMSKSGFEKSSLEDRQRAEKKSREEKGQKFAPKWFDETEEVTPTPWGDLEVYQFNGKYSVHRATAENSEDTTDVKLTQFNPWQFQDLSA
partner: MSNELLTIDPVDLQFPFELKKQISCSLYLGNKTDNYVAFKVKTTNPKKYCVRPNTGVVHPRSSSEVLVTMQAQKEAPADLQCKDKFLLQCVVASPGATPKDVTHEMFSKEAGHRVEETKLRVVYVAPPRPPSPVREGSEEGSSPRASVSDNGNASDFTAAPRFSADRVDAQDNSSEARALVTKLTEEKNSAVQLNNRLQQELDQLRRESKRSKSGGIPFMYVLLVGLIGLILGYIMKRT

Variants of: B1
Settings: with vap12_arath PVA12, Q9SHC8

effect of a mutation on the interaction	Variant
disrupting interaction	MASNDPKNGGGFFASLASSITNFGSAMSKSVNGLMGYEGLEVINPEGSTDDAEEEAGRGRWKQEERDGYWKMMQKYIGSDVTSMVTLPVIIFEPMTMLQKMAELMEYSYLLDMADKTEDPYMRMVYASSWAISVYYAYQRTWKPFNPILGETYEMTNHNGINFIAEQVCHHPPMSAGHAENEHFAYDCTSKLKTKFLGNSIDVYPVGRTRVTLKRDGVVLDLVPPLTKVHNLIFGRTWVDSPGEMVMTNLTTGDKVVLYFQPCGWFGSGRYEVDGYVYNSAEEPKMLMTGKWNESLSYQPCDAEGEPLPGTELKEVWKVAEAPKNDKYQYTHFAHKINSFDTAPKKLLSSDSRLRPDRYALEMGDMSKSGFEKSSLEDRQRAEKKSREEKGQKFAPKAAGGTGEVTPTPWGDLEVYQFNGKYSVHRATAENSEDTTDVKLTQFNPWQFQDLSA [W398A;F399A;D400G;E401G;E403G]
